One block for each substance: values may come before it.
Experiments:
[1] = biological target: 16A-cys(i)-less (TMEM16A with all cysteines of the cytosolic portion replaced with serines); assay: cross-linking; harvested transfected HEK-293 cells in PBS with 300 uM 1,5-pentanediyl bismethanethiosulfonate, 15 min, room temperature; stopped with Laemmli buffer or reversed with 33 mM DTT; SDS-PAGE and Western blot with SP31 antibody
[2] = biological target: 16A-cys(i)-less R494C/K921C; assay: as above
[3] = biological target: TMEM16A fused to a fluorescent protein (eGFP-TMEM16A, TMEM16A-eGFP, TMEM16A-mCherry); assay: FRET or BRET; acceptor photobleaching FRET, confocal microscope, HEK-293 cells co-transfected with eGFP-TMEM16A (donor) and TMEM16A-mCherry (acceptor): NT-CT configuration

TMEM16A fused to a fluorescent protein (eGFP-TMEM16A, TMEM16A-eGFP, TMEM16A-mCherry), sequence (Q5XXA6 whole entry, the tested form may be a part): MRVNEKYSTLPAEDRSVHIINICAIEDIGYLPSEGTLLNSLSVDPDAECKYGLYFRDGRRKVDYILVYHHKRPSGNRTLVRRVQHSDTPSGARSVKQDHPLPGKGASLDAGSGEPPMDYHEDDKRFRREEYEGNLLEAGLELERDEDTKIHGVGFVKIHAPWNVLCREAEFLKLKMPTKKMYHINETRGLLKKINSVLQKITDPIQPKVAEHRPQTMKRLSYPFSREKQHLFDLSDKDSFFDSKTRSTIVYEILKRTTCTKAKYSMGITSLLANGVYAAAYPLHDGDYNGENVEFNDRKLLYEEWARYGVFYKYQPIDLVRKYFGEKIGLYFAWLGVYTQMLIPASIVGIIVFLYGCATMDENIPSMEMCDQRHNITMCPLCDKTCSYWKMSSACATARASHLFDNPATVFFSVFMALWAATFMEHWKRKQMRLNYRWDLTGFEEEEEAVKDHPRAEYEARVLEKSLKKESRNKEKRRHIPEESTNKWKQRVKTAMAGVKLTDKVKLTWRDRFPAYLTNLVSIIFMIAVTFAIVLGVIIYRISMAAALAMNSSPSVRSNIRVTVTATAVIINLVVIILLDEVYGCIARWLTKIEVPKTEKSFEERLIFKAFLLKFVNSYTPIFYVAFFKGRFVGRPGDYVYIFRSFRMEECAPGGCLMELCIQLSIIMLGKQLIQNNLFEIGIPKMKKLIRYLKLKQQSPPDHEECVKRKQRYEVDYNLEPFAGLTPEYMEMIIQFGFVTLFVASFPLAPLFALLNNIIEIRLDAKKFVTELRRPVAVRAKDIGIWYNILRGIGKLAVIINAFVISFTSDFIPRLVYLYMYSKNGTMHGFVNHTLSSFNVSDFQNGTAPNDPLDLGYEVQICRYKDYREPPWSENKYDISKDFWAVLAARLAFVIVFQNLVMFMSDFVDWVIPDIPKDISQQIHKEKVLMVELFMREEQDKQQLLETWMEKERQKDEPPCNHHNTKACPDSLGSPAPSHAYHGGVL

- stoichiometry N [1]: 2
Substance: 16A-cys(i)-less (TMEM16A with all cysteines of the cytosolic portion replaced with serines) (natural protein)

- stoichiometry N [2]: 2
Substance: 16A-cys(i)-less R494C/K921C (natural protein)

- FRET efficiency [3]: 7.44%
Substance: TMEM16A fused to a fluorescent protein (eGFP-TMEM16A, TMEM16A-eGFP, TMEM16A-mCherry) (natural protein)

— article PMC5144075
